Assay results from publication PMC11229353 (Nucleic Acids Research, 2024).
Entries after “also recorded” stand apart in the source; their conditions may differ. The star is where a group is joined. Biotin = O=C1N[C@H]2[C@H](CS[C@H]2CCCCC(=O)*)N1

B3: DMC1 (untagged full-length human DMC1, wild type) (natural protein, UniProt Q14565 1-340, looked up)
chain: MKEDQVVAEEPGFQDEEESLFQDIDLLQKHGINVADIKKLKSVGICTIKGIQMTTRRALCNVKGLSEAKVDKIKEAANKLIEPGFLTAFEYSEKRKMVFHITTGSQEFDKLLGGGIESMAITEAFGEFRTGKTQLSHTLCVTAQLPGAGGYPGGKIIFIDTENTFRPDRLRDIADRFNVDHDAVLDNVLYARAYTSEHQMELLDYVAAKFHEEAGIFKLLIIDSIMALFRVDFSGRGELAERQQKLAQMLSRLQKISEEYNVAVFVTNQMTADPGATMTFQADPKKPIGGHILAHASTTRISLRKGRGELRIAKIYDSPEMPENEATFAITAGGIGDAKE

How the values were obtained:
DMC1 [1] = target: T1, DMC1 (Homo sapiens, UniProt Q14565); assay: Biolayer interferometry; assay type: binding; settings: immobilized biotinylated peptide, DMC1 concentration of 5 μM, 25°C
T1 sequence (Q14565 1-340): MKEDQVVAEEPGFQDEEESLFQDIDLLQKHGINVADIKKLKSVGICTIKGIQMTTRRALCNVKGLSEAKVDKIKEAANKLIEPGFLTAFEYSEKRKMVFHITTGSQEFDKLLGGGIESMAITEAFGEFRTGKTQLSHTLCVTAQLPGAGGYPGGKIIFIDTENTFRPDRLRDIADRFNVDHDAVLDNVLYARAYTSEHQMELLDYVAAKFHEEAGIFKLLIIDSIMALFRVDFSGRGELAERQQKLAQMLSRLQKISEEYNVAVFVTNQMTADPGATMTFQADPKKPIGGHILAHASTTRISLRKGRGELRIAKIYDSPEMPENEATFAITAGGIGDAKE

DMC1–ssDNA filaments = assay: Electrophoretic mobility shift assay; assay type: binding, human; settings: EMSA, 2 μM DMC1, 2 μM PhePP F2s3, 90 nt ssDNA, Ca-ATP, 30 min 37°C
[2] = target: B3; assay: BLI
[3] = target: B3; assay: ITC
DMC1 F89A = target: T2, DMC1 F89A (human, UniProt Q14565 1-340, F89A); assay: EMSA
T2 sequence: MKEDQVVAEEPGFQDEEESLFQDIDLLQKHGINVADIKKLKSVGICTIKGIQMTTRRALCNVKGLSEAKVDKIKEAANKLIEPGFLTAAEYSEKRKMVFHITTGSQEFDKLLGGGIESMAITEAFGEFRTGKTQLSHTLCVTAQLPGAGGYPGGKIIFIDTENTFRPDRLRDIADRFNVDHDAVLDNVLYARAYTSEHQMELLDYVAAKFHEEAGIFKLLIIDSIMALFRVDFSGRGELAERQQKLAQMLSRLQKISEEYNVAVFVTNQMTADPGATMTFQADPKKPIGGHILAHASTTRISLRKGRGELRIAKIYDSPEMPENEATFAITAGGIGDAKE

DMC1 [4] = target: T3, DMC1 (human, UniProt Q14565 1-340); assay: EMSA
T3 sequence: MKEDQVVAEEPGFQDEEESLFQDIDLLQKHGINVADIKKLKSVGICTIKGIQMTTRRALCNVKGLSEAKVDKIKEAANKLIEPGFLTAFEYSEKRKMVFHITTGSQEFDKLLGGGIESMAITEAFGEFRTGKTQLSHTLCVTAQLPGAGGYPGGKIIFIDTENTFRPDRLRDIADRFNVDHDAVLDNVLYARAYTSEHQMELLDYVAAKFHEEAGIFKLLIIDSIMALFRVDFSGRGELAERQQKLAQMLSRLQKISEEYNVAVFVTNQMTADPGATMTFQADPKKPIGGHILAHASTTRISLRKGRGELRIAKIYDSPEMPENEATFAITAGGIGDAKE

DMC1;BRCA2 F2s3 (PhePP) = target: T4, DMC1;BRCA2 F2s3 (PhePP) (human;human, UniProt Q14565;P51587 1-340;2379-2433, |); assay: EMSA
T4 sequence 1: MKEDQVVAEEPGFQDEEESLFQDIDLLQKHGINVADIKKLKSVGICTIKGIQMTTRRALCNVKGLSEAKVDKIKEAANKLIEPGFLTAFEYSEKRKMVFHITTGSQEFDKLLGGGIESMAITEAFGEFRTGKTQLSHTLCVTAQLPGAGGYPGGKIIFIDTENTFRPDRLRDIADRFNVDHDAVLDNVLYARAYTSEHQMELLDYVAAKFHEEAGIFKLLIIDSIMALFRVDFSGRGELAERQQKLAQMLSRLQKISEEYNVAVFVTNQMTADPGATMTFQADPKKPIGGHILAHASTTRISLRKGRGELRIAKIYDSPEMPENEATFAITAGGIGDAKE
T4 sequence 2: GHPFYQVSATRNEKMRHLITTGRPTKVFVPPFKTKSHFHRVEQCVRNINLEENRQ

crystal structure = target: the molecule itself; assay: crystal structure
[5] = target: B3; assay: BLI; remark: listed apart in the source
[6] = target: B3; assay: pull-down

For “Biotin-GSG-SNHSFGGSFRTASNKEIKLSEHNIKKSKMFFKDIEE-NH2 [BRC1, reference compound]”, the “binding to DMC1 detected by BLI” value (DMC1 [1]) was “No binding was detected; also recorded: no interaction could be detected”.

For “Biotin-GSG-TTGRPTKVAVPPFKTKSHFH-NH2 [PhePPmut]”, the “binding to DMC1 detected by BLI” value (DMC1 [1]) was “No binding was detected”.

With “Biotin-GSG-VSPAAQKAFQPPRSSGTKYE-NH2 [TR2]” the “binding to DMC1 detected by BLI” value (DMC1 [1]) was “No binding was detected; also recorded: no interaction could be detected”.

In the case of “F2s3: purified bacterially expressed BRCA2 fragment 2379–2433 containing the PhePP motif”, the “effect on electrophoretic mobility of the DMC1–ssDNA complex” value (DMC1–ssDNA filaments) is reported as “reduced electrophoretic mobility”.

Ac-TTGRPTKVFVPPFKTKSHFH-NH2 [BRCA2 F2s6 (2398–2417) synthetic peptide] showed a Kd [2] of 2.1 ± 0.5 µM and a Kd [3] of 3.4 ± 1.3 µM.

B1: AF-647-SK3-90 ssDNA (ssDNA)
DNA: AATTCTCATTTTACTTACCGGACGCTATTAGCAGTGGCAGATTGTACTGAGAGTGCACCATATGCGGTGTGAAATACCGCACAGATGCGT
B1: binds (DMC1 F89A); binds (DMC1 [4]); binds (DMC1;BRCA2 F2s3 (PhePP)).

B2: BRCA2 F2s3 (2379–2433), purified recombinant peptide (domain or fragment, human, UniProt P51587 2379-2433, looked up)
chain: GHPFYQVSATRNEKMRHLITTGRPTKVFVPPFKTKSHFHRVEQCVRNINLEENRQ
B2 showed a Kd [3] of 3 ± 0.5 µM.

B3 was tested, and the “stoichiometry N” value (crystal structure) was 8.

Work on Biotin-GSGSAESKKPKWVPPAASGGSRS-NH2 [biotinylated RAD51AP1 P-motif peptide] yielded a Kd [5] of ~1.6 µM.

For Biotin-GSGRSRGILGKFVPPIPKQDGGE-NH2 [biotinylated FIGNL1 P-motif peptide], the Kd [5] was ~16.2 µM.

B4: GST-tagged BRCA2 F2 (2351–2479), wild type (domain or fragment, human, UniProt P51587 2351-2479, looked up)
chain: APGQEFLSKSHLYEHLTLEKSSSNLAVSGHPFYQVSATRNEKMRHLITTGRPTKVFVPPFKTKSHFHRVEQCVRNINLEENRQKQNIDGHGSDDSKNKINDNEIHQFNKNNSNQAVAVTFTKCEEEPLD
B4: binds [6].

B5: GST-tagged BRCA2 F2 R2401A (domain or fragment, human, UniProt P51587 2351-2479, looked up)
chain: APGQEFLSKSHLYEHLTLEKSSSNLAVSGHPFYQVSATRNEKMRHLITTGAPTKVFVPPFKTKSHFHRVEQCVRNINLEENRQKQNIDGHGSDDSKNKINDNEIHQFNKNNSNQAVAVTFTKCEEEPLD
B5: binds [6].

B6: GST-tagged BRCA2 F2s3 R2401A (domain or fragment, human, UniProt P51587 2379-2433, looked up)
chain: GHPFYQVSATRNEKMRHLITTGAPTKVFVPPFKTKSHFHRVEQCVRNINLEENRQ
B6: binds [6].

B7: GST-tagged BRCA2 F2 K2404A (domain or fragment, human, UniProt P51587 2351-2479, looked up)
chain: APGQEFLSKSHLYEHLTLEKSSSNLAVSGHPFYQVSATRNEKMRHLITTGRPTAVFVPPFKTKSHFHRVEQCVRNINLEENRQKQNIDGHGSDDSKNKINDNEIHQFNKNNSNQAVAVTFTKCEEEPLD
B7: binds [6].

B8: GST-tagged BRCA2 F2s3 K2404A (domain or fragment, human, UniProt P51587 2379-2433, looked up)
chain: GHPFYQVSATRNEKMRHLITTGRPTAVFVPPFKTKSHFHRVEQCVRNINLEENRQ
B8: binds [6].

Molecule Biotin-GSGTTGRPTKVFVPPFKTKSHFH-NH2 [biotinylated BRCA2 F2s6 peptide (Biotin-GSG-F2s6-NH2)] has a Kd [5] of ~0.001 µM.
